According to article PMC2835542:

Biological target: human epidermal growth factor receptor (EGFR), stably over-expressed on rat 9L gliosarcoma cells (human) (UniProt P00533)
Experiment: X-gal staining of live cells incubated with β-gal-labelled ligand complex

percent of cells labelled: > 75%
Substance: EGF ligand-complex with full-length β-gal reporter (EGF-B-SA-B-β-gal)
